Laboratory results from patent US20170131282A1.

Legend:
Assay in all cases: cell-based or functional assay
[1] = molecular target: mouse chemokine CCL7 secreted in conditioned media of mouse adipocytes / adipose tissue (mouse) (UniProt Q03366)
[2] = molecular target: human chemokine receptor CCR3 on human prostate tumor cells (PC-3, Du-145) (human) (UniProt P51677)
[3] = molecular target: mouse chemokine receptor CCR3 (NM_009914) on mouse prostate tumor cells (TRAMP-C1P3, RM1-BM) (mouse) (UniProt P51678)
UniProt P51678, sequence (P51678 whole entry): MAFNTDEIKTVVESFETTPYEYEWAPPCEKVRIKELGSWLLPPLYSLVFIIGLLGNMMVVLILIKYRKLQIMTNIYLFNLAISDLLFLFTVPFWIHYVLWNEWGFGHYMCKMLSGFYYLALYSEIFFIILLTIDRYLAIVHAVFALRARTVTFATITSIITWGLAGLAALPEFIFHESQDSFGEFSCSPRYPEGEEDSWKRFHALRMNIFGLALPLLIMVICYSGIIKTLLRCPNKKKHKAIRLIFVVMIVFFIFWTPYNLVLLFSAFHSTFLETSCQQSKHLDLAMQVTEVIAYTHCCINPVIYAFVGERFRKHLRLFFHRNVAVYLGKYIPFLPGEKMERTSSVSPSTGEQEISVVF

UniProt Q03366, sequence (Q03366 24-97): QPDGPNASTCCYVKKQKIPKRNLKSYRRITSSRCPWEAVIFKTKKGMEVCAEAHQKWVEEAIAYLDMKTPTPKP
UniProt P51677, sequence (P51677 whole entry): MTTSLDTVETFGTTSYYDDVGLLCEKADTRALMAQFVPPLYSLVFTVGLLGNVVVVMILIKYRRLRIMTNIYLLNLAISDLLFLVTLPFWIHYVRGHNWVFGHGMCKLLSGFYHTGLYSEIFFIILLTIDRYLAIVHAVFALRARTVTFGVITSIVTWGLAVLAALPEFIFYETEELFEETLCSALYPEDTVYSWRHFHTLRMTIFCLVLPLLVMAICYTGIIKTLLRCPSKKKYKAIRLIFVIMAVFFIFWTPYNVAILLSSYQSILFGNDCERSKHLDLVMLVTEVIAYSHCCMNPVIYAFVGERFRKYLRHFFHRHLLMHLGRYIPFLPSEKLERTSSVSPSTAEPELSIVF

Row | Substance | inhibition of migration of PC-3 and Du-145 cells against CM-Ad (Boyden chamber) [1] [% inhibition] | inhibition of migration of PC-3 cells against CM of HFD AT-mu-PG (obese mice) [1] [% inhibition] | inhibition of migration of PC-3 cells against CM of ND AT-mu-PG (normal-weight mice) [1] [% inhibition] | migration of PC-3 and Du-145 prostate cells (Boyden chamber), dose from which the effect is significant [2] [ng/mL] | chemotaxis of TRAMP-C1P3 cells (Boyden chamber), dose from which it is seen [3] [ng/mL] | migration of RM1-BM cells (Boyden chamber) [3] [ng/mL]
1 | blocking antibody targeted against CCL7 (AF-456-NA, R&D System) | 50 | 60 | 25 | – | – | –
2 | human chemokine CCL7 (from UniProt P80098 24-99) (ligand) | – | – | – | > 50 | > 50 | 100
